Assays:
[1] = target: human prothrombin with His tag (human) (UniProt P00734); assay: Biacore
[2] = target: human thrombin with His tag (human) (UniProt P00734); assay: Biacore
[3] = target: human prothrombin with His tag (human) (UniProt P00734); assay: Biacore; reference h1601-008
[4] = target: human thrombin with His tag (human) (UniProt P00734); assay: Biacore; reference h1601-008
[5] = target: human thrombin with His tag (human) (UniProt P00734); assay: Biacore; ratio of KD on pro-thrombin to KD on thrombin

Kd [1]: 131 nM
Kd [2]: 2.57 nM
Fold of Affinity relative to h1601-008 [3]: 0.6 fold
Fold of Affinity relative to h1601-008 [4]: 3 fold
Selective activity [5]: 51
Substance: Ichorcumab (antibody)
